The record followed here is paper PMC4823042, “Transcription factor LSF (TFCP2) inhibits melanoma growth”.

Sequences and labels used below:
T1: LSF (Late SV40 factor 3) (human, UniProt Q12800 1-502)
T1 sequence: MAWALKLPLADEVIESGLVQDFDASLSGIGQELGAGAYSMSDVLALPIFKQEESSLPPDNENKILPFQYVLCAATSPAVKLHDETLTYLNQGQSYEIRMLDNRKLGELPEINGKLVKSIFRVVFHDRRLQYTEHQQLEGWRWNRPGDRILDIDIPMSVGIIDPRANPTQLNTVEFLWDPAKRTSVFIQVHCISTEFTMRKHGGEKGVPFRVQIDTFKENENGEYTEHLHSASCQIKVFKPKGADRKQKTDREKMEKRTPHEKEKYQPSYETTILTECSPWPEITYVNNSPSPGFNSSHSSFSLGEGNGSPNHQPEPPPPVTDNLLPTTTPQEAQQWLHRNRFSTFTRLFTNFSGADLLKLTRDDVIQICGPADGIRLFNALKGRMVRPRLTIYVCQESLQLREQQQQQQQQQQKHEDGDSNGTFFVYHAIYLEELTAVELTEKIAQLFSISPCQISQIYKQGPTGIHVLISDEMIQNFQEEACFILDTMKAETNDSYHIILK

B1: p21 promoter #3 (dsDNA)
DNA 1: GCTGGCTCGGCGCTGGGCAGCCAGGAGCCT
DNA 2: GCCCAGGCTCCTGGCTGCCCAGCGCCGAGCC
B2: p21 promoter #1 mutant (dsDNA)
DNA 1: GCACGCGAGGTTACGTGACCGTATGTCCTGC
DNA 2: TCCAGCAGGACATACGGTCACGTAACCTCGC
B3: p21 promoter #4 mutant (dsDNA)
DNA 1: GCCTCCTTGAGTAGGTCCCGGTAGGTGCGGT
DNA 2: TACAACCGCACCTACCGGGACCTACTCAAGG
B4: p21 promoter #2 (dsDNA)
DNA 1: GCTGGAACTCGGCCAGGCTCAGCTGGCTCGG
DNA 2: AGCGCCGAGCCAGCTGAGCCTGGCCGAGTTC
B5: p21 promoter #1 (dsDNA)
DNA 1: GCACGCGAGGTTCCGGGACCGGCTGGCCTGC
DNA 2: TCCAGCAGGCCAGCCGGTCCCGGAACCTCGC
B6: p21 promoter #4 (dsDNA)
DNA 1: GCCTCCTTGAGGCGGGCCCGGGCGGGGCGGT
DNA 2: TACAACCGCCCCGCCCGGGCCCGCCTCAAGG

The first data set concerns the target T1, LSF (Late SV40 factor 3). Put plainly: EMSA; LightShift Chemiluminescent EMSA kit per manufacturer; 7% PAGE in 0.5x TBE; binding buffer, pH and temperature not stated. The conditions noted are these: protein: ivt; tags: FLAG; chain copies: 4; label: biotin end label; 5' overhangs 3 nt (top) and 4 nt (bottom).
With B1, the binding result was “binds”.

Staying with this data set, now noted: protein: ivt; tags: FLAG; chain copies: 4; label: biotin end label; 5' overhangs 4 nt on both strands.
In the case of B2, the binding result is “no binding”.
Turning to B3, the binding result is “no binding”.
On the same count and under the same terms, in the case of B4 it was “binds”; in that of B5, “binds”.
On the same count and under the same terms, the entry for B6 is “binds”.
